The values that follow come from patent US6307020A, “Intracellular antifreeze polypeptides and nucleic acids” (HSC Research and Development Ltd. Partnership, priority 1998, dated 2001).

Series [1] is described as follows: Antifreeze activity measured as thermal hysteresis with a Clifton Nanoliter Osmometer. In kind it is physicochemical. The procedure: The preferred method of measuring the activity of a skin type AFP is to measure the thermal hysteresis (the difference between the melting and freezing temperatures) of an aqueous solution containing the AFP. This can be done by performing a serial dilution of the AFP-containing aqueous solution, followed by cooling the solution gradually and monitoring the freezing point of the solution. Typically, this is performed using commercially available equipment designed specifically for this purpose, such as nanoliter osmoineter. See, Kao et al. (1986) Can. J. Zool. 64:578-582. A preferred osmometer is the Clifton Nanoliter Osmoineter (Clifton Technical Physics, Hartford, N.Y.). Instructions for using the equipment to perform thermal hysteresis are available from the manufacturer. […]
The activity of a skin-type AFP can be measured using a nanoliter osmometer. Antifreeze activity was measured as thermal hysteresis (the difference between the melting and freezing temperatures), essentially following the procedure of Chakrabartty et al. (1989) J. Biol. Chem. 264: 11313-11316. Proteins were dissolved in 0.1 M NH4 HCO3 and their concentrations were determined by duplicate amino acid analyses. […]
Antifreeze activity was measured as thermal hysteresis (difference between the melting and freezing temperatures) essentially following the procedure of Chakrabartty et al. (1989) J. Biol. Chem. 264, 11307-11312. […]

Series [2] is described as follows: Circular dichroism and thermal denaturation of liver and skin AFPs. Type of series: physicochemical. The settings on record: for Tm (temperature at which fraction helix is 0.5): thermal denaturation 0-60° C., CD. As to the method: CD spectra were measured using a Jasco J-600 spectropolarimeter. A water-jacketed (0.1 cm) quartz cell was used. Concentrations of peptides were calculated from UV-absorbance at 230 nm (OD230 =6.1 mM/L peptide-bonds). The concentrations of peptides for CD measurement were between 0.1-0.2 mg/ml in 0.1M NH4 HCO3, pH 8.5. Thermal denaturation of the peptides were measured by varying temperatures from 0-60° C. with a 5° C. step gradient. After CD measurement at 60° C., the samples were cooled to 0° C. and the extent of refolding was determined. The mean residue ellipticity at a given wavelength [q]1 was expressed in degree cm^2 dmol^-1. Fraction helix was calculated as described by Greenfield and Fasman (1969) Biochemistry 8, 4108-4116, employing 222 nm instead of 208 nm: [formula]
The ellipticity [q]222^coil of each peptide in 6.0 M guanidine hydrochloride at 25° C. was assumed to represent 0% helix formation, and the ellipticity for [q]222^helix 100% helix formation was calculated from J. T. Yang et al. (1986) Methods in Enzymology 130, 208-269: [q]^n= [q]^.infin. (1-k/n); where n is the chain length and k is a wavelength-dependent factor (at 222 nm k=2.5 and [q].infin.=-37,400 degree cm^2 dmol^-1).
(In general: Circular dichroism is widely used to follow secondary structure.)

On to “sAFP2: skin-type AFP from winter flounder, MDAPAKAAAA TAAAAKAAAEA TAAAAAKAAAA TKAGAAR, SEQ ID NO: 18; identical to protein encoded by F2 (MDAPAKAAAATAAAAKAAAEATAAAAAKAAAATKAGAAR)”, for which the “antifreeze activity (thermal hysteresis) compared with serum AFP HPLC-6” value in series [1] (dilutions 0.1 to 7.0 mM in 0.1 M NH4HCO3, FIG. 3) was “less than half of that observed for HPLC-6”. Besides, in series [1] (nanoliter osmometer, 0.1 M NH4HCO3), the “antifreeze activity of GST-sAFP2 fusion protein compared with sAFP2” value was “indistinguishable”. Also, the “Fraction Helix” value in series [2] (0° C., pH 8.5, 0.1M NH4HCO3, calculated from ellipticity at 222 nm) was 0.61. Moreover, the “helical content by circular dichroism” value in series [2] (at 0° C.) is 61%. In series [2] (measured at 0° C., pH 8.5, 0.1M NH4HCO3), the “[Θ]222 mean residue ellipticity” value is given as -21,677 deg cm^2 dmol^-1. Also, the “Tm (temperature at which fraction helix is 0.5)” value in series [2] turned out to be 12 °C; in series [2] (listed as SAFP2), 12.0 °C.
